Measurements taken from US20080044360A1 (COLLAGEN MEDICAL, published 2008).
Bridge positions count the residues as written; N and C are the ends. Square brackets hold non-standard residues; d marks the D form. Primed or numbered codes have the meaning given here. Ends that are not written are not given here. Glu‑DTPA‑Gd = N-terminal Glu-DTPA-Gd chelate (gadolinium DTPA complex on glutamic acid); Glu‑DTPA‑Gd″ = N-terminal chelate: Glu-DTPA-Gd (glutamic acid–DTPA gadolinium chelate); Glu‑DTPA‑Gd(3) = N-terminal gadolinium chelate Glu-DTPA-Gd; PEG(2O) = not defined here

What was measured:
[1] = biological target: T1, human collagen type I, acid soluble, extracted from placenta (Sigma C7774) (human, UniProt P02452 162-1218; P08123 80-1119); experiment: dried collagen assay
T1 construct: tissue extract, gelled and dried in wells; also called dried human collagen; h-Collagen
T1 sequence (P02452 162-1218 limits assumed, chain 1 of 2): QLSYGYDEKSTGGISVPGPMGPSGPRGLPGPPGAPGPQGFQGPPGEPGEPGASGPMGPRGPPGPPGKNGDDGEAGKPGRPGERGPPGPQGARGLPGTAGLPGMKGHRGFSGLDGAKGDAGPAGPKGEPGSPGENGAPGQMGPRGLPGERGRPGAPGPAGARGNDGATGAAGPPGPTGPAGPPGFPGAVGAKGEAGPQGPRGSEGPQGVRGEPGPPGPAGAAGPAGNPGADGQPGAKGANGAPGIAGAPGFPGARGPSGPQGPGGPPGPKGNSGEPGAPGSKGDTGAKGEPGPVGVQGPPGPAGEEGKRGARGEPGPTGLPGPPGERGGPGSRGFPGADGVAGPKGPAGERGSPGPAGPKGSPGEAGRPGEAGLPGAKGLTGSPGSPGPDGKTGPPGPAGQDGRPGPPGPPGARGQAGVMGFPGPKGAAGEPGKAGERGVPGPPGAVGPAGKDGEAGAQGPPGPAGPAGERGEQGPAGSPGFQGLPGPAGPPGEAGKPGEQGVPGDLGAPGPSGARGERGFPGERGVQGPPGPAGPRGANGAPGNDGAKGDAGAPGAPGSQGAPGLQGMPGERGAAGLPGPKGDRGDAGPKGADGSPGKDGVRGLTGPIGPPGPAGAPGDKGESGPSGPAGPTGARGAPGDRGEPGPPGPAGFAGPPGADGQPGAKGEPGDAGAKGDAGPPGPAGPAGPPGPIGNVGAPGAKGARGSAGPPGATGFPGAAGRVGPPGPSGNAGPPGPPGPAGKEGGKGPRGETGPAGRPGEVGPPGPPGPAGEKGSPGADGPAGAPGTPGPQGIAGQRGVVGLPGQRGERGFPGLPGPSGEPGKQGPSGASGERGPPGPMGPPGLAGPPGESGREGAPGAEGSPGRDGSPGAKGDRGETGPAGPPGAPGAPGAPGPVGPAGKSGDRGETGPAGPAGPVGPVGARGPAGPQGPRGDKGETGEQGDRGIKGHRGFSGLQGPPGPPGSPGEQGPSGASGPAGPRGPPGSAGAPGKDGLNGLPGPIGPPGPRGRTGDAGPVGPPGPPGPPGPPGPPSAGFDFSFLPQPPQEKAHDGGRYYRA
T1 sequence (P08123 80-1119 limits assumed, chain 2 of 2): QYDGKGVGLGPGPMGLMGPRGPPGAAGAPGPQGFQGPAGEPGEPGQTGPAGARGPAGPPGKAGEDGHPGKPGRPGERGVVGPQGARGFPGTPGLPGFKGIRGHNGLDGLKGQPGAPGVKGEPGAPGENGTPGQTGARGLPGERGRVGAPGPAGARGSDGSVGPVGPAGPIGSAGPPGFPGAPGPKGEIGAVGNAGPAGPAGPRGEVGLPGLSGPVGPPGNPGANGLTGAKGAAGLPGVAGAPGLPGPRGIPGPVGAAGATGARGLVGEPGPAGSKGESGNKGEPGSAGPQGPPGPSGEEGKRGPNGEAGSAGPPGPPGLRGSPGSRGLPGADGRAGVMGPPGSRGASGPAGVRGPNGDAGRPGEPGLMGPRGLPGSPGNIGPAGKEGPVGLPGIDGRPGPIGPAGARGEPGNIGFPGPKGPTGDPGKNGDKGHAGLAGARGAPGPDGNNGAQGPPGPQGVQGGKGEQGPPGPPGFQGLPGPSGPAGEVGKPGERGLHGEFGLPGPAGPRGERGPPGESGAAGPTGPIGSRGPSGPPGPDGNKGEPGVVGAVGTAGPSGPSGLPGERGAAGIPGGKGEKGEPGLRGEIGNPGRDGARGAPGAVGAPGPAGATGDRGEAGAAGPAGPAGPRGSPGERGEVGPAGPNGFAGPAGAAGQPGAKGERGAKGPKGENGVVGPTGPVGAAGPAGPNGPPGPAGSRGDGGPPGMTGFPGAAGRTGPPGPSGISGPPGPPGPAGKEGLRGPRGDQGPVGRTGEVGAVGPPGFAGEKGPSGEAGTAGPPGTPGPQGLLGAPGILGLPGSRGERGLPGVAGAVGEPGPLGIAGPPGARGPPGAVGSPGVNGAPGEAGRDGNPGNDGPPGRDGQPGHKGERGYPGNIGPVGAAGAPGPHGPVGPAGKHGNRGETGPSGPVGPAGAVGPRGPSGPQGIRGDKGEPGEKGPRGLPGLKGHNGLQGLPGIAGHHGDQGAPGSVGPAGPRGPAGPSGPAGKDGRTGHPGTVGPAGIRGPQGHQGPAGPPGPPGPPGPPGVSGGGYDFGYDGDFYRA
Description: (§1) An additional 90 μL is reserved in a HPLC glass vial as a measure of the total concentration.

[2] = biological target: T2, rat collagen, acid soluble, type I, rat tail (Upstate 08-115) (rat, UniProt P02454 152-1207; P02466 86-1125); experiment: dried collagen assay
T2 construct: tissue extract, gelled and dried in wells; also called dried rat collagen
T2 sequence (P02454 152-1207, chain 1 of 2): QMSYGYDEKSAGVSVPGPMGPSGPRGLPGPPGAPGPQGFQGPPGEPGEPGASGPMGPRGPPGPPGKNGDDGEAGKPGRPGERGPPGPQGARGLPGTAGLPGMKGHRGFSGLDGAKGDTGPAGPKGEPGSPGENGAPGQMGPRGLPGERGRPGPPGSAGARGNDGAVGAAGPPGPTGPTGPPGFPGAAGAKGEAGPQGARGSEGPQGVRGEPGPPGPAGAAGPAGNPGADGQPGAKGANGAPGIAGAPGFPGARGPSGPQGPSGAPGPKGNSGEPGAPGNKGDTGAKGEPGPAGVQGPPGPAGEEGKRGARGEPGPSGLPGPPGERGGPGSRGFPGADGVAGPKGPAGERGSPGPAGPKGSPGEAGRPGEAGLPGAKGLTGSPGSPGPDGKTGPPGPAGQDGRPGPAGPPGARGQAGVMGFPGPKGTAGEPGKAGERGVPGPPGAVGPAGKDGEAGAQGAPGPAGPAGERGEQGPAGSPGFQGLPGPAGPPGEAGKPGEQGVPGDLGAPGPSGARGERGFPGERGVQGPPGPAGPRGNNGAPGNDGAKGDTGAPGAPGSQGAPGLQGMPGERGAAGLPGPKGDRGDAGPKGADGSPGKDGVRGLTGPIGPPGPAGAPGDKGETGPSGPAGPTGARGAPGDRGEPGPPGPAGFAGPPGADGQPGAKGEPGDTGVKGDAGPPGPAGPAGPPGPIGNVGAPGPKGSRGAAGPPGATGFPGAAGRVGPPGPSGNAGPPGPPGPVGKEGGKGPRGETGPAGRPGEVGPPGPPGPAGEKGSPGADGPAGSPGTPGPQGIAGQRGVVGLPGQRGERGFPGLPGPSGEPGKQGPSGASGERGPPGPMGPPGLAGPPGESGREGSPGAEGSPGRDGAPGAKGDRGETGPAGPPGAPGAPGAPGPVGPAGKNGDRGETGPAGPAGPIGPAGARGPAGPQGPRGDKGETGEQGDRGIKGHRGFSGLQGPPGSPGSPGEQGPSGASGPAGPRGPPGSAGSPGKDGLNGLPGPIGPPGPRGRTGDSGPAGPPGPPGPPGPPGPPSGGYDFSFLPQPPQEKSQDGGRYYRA
T2 sequence (P02466 86-1125, chain 2 of 2): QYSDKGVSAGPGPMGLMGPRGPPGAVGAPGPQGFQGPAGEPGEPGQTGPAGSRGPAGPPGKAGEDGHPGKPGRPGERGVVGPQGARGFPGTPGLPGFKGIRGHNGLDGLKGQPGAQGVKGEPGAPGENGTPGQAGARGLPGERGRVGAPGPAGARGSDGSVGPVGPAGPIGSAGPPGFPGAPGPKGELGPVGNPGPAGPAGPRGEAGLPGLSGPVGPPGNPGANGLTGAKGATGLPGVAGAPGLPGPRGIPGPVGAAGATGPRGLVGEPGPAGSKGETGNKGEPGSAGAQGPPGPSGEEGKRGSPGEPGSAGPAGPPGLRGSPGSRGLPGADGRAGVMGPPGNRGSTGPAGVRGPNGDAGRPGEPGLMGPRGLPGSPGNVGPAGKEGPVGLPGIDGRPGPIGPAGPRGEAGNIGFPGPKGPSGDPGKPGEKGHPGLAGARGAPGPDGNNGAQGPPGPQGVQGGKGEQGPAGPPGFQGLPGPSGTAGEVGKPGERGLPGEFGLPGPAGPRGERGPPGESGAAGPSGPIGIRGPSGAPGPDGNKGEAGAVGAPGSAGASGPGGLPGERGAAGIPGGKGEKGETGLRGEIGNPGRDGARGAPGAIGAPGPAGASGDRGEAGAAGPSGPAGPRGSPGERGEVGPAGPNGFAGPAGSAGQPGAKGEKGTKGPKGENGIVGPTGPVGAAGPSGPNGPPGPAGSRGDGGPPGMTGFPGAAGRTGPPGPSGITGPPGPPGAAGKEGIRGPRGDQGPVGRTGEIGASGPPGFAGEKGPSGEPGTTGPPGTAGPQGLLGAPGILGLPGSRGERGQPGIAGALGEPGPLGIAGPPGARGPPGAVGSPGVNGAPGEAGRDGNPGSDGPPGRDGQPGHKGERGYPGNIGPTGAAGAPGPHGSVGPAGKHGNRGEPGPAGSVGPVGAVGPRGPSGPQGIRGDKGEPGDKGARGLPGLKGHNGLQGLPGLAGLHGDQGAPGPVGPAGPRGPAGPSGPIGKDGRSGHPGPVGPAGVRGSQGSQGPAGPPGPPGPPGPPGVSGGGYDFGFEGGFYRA
Description: as §1

[3] = biological target: T1, human collagen type I, acid soluble, …; experiment: % binding to collagen I
[4] = biological target: T2, rat collagen, acid soluble, type I, rat …; experiment: % binding to collagen I

Binder | % bound [1] [%] | % bound [2] [%] | % bound [3] [%] | % bound [4] [%]
YHACYQAGCW[dI]W (disulfide 4-9 (inferred); not fully specified (C-terminus); printed as YHACYQAGCWiW, cyclic, disulfide) [SEQ ID NO 161] | 8 | 10 |  | 
{Glu‑DTPA‑Gd}-WWTCHMTWSGQWDSCKWH-NH2 (disulfide 4-15 (inferred)) [Compound ID 1020] |  |  | 60 | 34
WWTCHMTWSGQWDSCKWH-NH2 (disulfide 4-15 (inferred); not fully specified (N-terminus); also: Gd chelated by DTPA) [SEQ ID NO 196] |  |  | 60 | 34
{Glu‑DTPA‑Gd″}-GGDWTCVGDHKTWKCNFH-NH2 (disulfide 6-15 (inferred), N-terminal G-G linker) [Compound ID 1023] |  |  | 14 | 12
YHACYQAGC[dW]IW (disulfide 4-9 (inferred); not fully specified (C-terminus); printed as YHACYQAGCwIW, cyclic, disulfide) [SEQ ID NO 160] | 20 | 12 |  | 
YHACY[dQ]AGCWIW (disulfide 4-9 (inferred); not fully specified (C-terminus); printed as YHACYqAGCWIW, cyclic, disulfide; also called YHACYqAGCWIW) [SEQ ID NO 157] | 37 | 35 |  | 
{Glu‑DTPA‑Gd(3)}-PPQWHCTTRFPHHYCLYG-NH2 (disulfide 6-15 (inferred), N-terminal P-P linker) [Compound ID 1024] |  |  | 70 | 55
WWGCRQGTGEHWSHCMWF (disulfide 4-15 (inferred); not fully specified (N-terminus, C-terminus); also: Gd chelated by DTPA at both ends) [SEQ ID NO 195] |  |  | 16 | 9
YHAC[dY]QAGCWIW (disulfide 4-9 (inferred); not fully specified (C-terminus); printed as YHACyQAGCWIW, cyclic, disulfide; also called YHACyQAGCWIW) [SEQ ID NO 156] | 38 | 48 |  | 
YHA[dC]YQAGCWIW (disulfide 4-9 (inferred); not fully specified (C-terminus); printed as YHAcYQAGCWIW, cyclic, disulfide) [SEQ ID NO 155] | 15 | 11 |  | 
{Glu‑DTPA‑Gd}-GQWTCSGDEYTWHCNYE (disulfide 5-14 (inferred); not fully specified (C-terminus), N-terminal G linker) [Compound ID 1021] |  |  | 48 | 13

Other lines, results leading:

% bound [1] [%] | % bound [2] [%] | % bound [3] [%] | % bound [4] [%] | Binder
56 | 66 |  |  | YHACYQ[dA]GCWIW (disulfide 4-9 (inferred); not fully specified (C-terminus); printed as YHACYQaGCWIW, cyclic, disulfide; also called YHACYQaGCWIW) [SEQ ID NO 158]
24 | 21 |  |  | YH[dA]CYQAGCWIW (disulfide 4-9 (inferred); not fully specified (C-terminus); printed as YHaCYQAGCWIW, cyclic, disulfide) [SEQ ID NO 154]
 |  | 36 | 38 | {Glu‑DTPA‑Gd}-GQWHCTTRFPHHYCLYG (disulfide 5-14 (inferred); not fully specified (C-terminus), N-terminal G linker) [Compound ID 1022]
73 | 63 |  |  | DWTCS[dL]DEYTWHCNYE (disulfide 4-13 (inferred), cyclic, disulfide) [SEQ ID NO 183]
18 | 14 |  |  | YHACYQAGCWI[dW] (disulfide 4-9 (inferred); not fully specified (C-terminus); printed as YHACYQAGCWIw, cyclic, disulfide) [SEQ ID NO 162]
0 | 0 |  |  | Y[dH]ACYQAGCWIW (disulfide 4-9 (inferred); not fully specified (C-terminus); printed as YhACYQAGCWIW, cyclic, disulfide) [SEQ ID NO 153]
 |  | 28 |  | {Glu‑DTPA‑Gd″-PEG(2O)}-GQWTCSGDEYTWHCNY[dE]-NH2 (disulfide 5-14 (inferred); reading uncertain, linker -PEG(2O)-G- on the N-terminus) [Compound ID 1026]
